According to patent publication US20200199241A1 (Chugai, published 2020):
Positions count from the first letter of the chain named. Numbers in names are those of the source. Where two headings read alike, the source gives them in different places. Each block holds one binder with its values, some of them ahead of it.

What was measured:
[1] = target: T1, human FcRn (soluble human FcRn complexed with β2-microglobulin) (human, UniProt P61769 21-119, limits assumed); assay: SPR, antibody captured by Protein L, human FcRn as analyte, pH 7.0, 25 C
T1 construct: also called hFcRn

[2] = target: T2, mouse FcγRIII (mouse, UniProt P08508 31-215); assay: SPR, antibody captured by Protein L, mouse FcγR as analyte, pH 7.4, 25 C
T2 construct: bought; also called mFcgRIII; mFcgR III
T2 sequence (looked up): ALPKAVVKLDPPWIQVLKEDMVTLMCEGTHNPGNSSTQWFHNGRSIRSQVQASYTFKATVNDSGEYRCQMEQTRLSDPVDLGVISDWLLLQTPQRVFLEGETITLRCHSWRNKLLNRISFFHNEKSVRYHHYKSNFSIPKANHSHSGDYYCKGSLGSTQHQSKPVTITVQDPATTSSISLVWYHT

[3] = target: T3, mouse FcγRI (mouse, UniProt P26151 25-297); assay: as above
T3 construct: bought; also called mFcgRI; mFcgR 1
T3 sequence (looked up): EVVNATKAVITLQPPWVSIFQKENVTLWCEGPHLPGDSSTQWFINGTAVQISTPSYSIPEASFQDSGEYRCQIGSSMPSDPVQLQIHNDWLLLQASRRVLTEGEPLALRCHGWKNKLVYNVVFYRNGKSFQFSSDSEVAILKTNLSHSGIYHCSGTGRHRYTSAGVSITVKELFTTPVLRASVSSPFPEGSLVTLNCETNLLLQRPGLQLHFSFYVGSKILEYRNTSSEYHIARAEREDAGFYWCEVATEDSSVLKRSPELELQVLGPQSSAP

[4] = target: T4, mouse FcγRIV (mouse, UniProt A0A0B4J1G0 21-203); assay: as above
T4 construct: bought; also called mFcgRIV; mFcgR IV; the vendor's purification tag not given
T4 sequence: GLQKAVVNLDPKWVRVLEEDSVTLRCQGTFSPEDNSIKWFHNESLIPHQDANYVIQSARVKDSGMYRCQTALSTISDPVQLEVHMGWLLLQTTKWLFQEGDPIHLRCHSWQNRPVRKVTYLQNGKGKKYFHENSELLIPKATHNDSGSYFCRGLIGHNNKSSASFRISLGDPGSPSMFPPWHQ

[5] = target: T5, mouse FcγRIIb (mouse, UniProt P08101 30-207, limits assumed); assay: as above
T5 construct: bought; also called mFcgRIIb; mFcgR IIb
T5 sequence (looked up): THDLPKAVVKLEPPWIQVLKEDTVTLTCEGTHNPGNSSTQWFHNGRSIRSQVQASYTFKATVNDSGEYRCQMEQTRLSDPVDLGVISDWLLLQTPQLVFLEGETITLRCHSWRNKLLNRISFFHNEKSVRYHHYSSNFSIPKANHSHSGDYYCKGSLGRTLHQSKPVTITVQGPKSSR

[6] = target: T6, human FcγRIa (human, UniProt P12314 16-292, limits assumed); assay: SPR, antibody captured by Protein L, human FcγR as analyte, pH 7.4, 25 C
T6 construct: also called hFcgRIa; hFcgRI
T6 sequence (P12314 16-292 limits assumed): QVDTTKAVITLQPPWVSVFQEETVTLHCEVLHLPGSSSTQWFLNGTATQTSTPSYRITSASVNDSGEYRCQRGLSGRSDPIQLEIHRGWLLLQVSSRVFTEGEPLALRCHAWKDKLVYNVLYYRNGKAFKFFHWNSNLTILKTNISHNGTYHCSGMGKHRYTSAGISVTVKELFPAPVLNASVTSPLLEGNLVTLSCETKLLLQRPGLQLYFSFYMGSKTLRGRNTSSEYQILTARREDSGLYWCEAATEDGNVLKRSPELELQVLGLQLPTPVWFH

[7] = target: T7, human FcγRIIb (human, UniProt P31994 43-217, limits assumed); assay: as above
T7 construct: also called hFcgRIIb; FcγIIB
T7 sequence: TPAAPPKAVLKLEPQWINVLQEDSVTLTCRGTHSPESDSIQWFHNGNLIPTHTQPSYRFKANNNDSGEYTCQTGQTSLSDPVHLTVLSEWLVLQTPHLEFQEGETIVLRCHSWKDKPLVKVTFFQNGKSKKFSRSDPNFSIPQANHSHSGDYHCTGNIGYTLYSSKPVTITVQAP

[8] = target: T8, human FcγRIIa(H) (human, UniProt P12318 36-217); assay: as above
T8 construct: also called hFcgRIIa(H); FcγRIIa type H
T8 sequence: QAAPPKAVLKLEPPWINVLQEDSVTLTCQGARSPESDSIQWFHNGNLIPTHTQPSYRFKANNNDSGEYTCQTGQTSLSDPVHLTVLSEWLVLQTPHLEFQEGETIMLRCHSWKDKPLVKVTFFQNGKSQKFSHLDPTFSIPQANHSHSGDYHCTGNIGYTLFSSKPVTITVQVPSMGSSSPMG

[9] = target: T9, human FcγRIIa(R) (human, UniProt P12318 36-217); assay: as above
T9 construct: also called hFcgRIIa(R); FcγRIIa type R
T9 chain: T8 sequence with H133R

[10] = target: T1, human FcRn (soluble human FcRn …); assay: SPR, antibody captured by Protein L, human FcRn as analyte, pH 7.0, 25 C; remark: listed apart in the source
[11] = target: T10, human FcRn (complex with human β2-microglobulin) (human, UniProt P61769 21-119, limits assumed); assay: hFcRn KD, method not given
T10 construct: soluble human FcRn complexed with β2-microglobulin was used; also called hFcRn

[12] = target: T6, human FcγRIa; assay: SPR, antibody captured by Protein L, human FcγR as analyte, pH 7.4, 25 C; remark: listed apart in the source
[13] = target: T7, human FcγRIIb; assay: as above; remark: listed apart in the source
[14] = target: T8, human FcγRIIa(H); assay: as above; remark: listed apart in the source
[15] = target: T9, human FcγRIIa(R); assay: as above
[16] = target: T1, human FcRn (soluble human FcRn …); assay: SPR, antibody captured by Protein L, human FcRn as analyte, pH 7.0, 25 C; remark: listed apart in the source
[17] = target: T6, human FcγRIa; assay: SPR, antibody captured by Protein L, human FcγR as analyte, pH 7.4, 25 C; remark: listed apart in the source
[18] = target: T7, human FcγRIIb; assay: as above; remark: listed apart in the source
[19] = target: T8, human FcγRIIa(H); assay: as above; remark: listed apart in the source
[20] = target: T9, human FcγRIIa(R); assay: as above
[21] = target: T1, human FcRn (soluble human FcRn …); assay: SPR, antibody captured by Protein L, human FcRn as analyte, pH 7.0, 25 C; remark: listed apart in the source
[22] = target: T11, human FcγRIIa(R) (human, UniProt P12318 36-217); assay: SPR, pH 7.4, antibody captured by Protein L
T11 construct: also called FcgRIIaR; hFcgRIIa(R)
T11 chain: T8 sequence with H133R

[23] = target: T12, human FcγRIIb (human, UniProt P31994 43-217, limits assumed); assay: SPR, pH 7.4, antibody captured by Protein L
T12 construct: also called FcgRIIb; hFcgRIIb
T12 sequence: T7 sequence

[24] = target: T13, mouse FcRn (mouse, UniProt Q61559 22-297; P01887 21-119, limits assumed); assay: SPR, mouse FcRn, pH 7.0
T13 construct: also called mFcRn
T13 sequence (looked up) 1: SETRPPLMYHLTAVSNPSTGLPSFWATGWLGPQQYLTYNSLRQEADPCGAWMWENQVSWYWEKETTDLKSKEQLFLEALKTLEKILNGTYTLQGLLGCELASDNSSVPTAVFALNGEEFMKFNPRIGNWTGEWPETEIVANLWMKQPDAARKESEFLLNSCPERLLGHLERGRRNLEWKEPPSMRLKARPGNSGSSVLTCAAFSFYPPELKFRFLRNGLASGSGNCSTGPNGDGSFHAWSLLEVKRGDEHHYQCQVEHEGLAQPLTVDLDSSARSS
T13 sequence (looked up) 2: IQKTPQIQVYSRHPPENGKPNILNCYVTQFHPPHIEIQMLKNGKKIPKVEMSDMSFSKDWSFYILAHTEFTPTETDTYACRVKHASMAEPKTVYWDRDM

B1: VH3/L(WT)-IgG1-F21 (VH3-IgG1-F21 heavy chain, L(WT)-CK light chain) (antibody)
heavy: QVQLQESGPGLVKPSETLSLTCAVSGHSISHDHAWSWVRQPPGEGLEWIGFISYSGITNYNPSLQGRVTISRDNSKNTLYLQMNSLRAEDTAVYYCARSLARTTAMDYWGEGTLVTVSSASTKGPSVFPLAPSSKSTSGGTAALGCLVKDYFPEPVTVSWNSGALTSGVHTFPAVLQSSGLYSLSSVVTVPSSSLGTQTYICNVNHKPSNTKVDKKVEPKSCDKTHTCPPCPAPELLGGPSVFLFPPKPKDTLYISRTPEVTCVVVDVSHEDPEVKFNWYVDGVEVHNAKTKPREEQYNSTYRVVSVLTPLHQDWLNGKEYKCKVSNKALPAPIEKTISKAKGQPREPQVYTLPPSRDELTKNQVSLTCLVKGFYPSDIAVEWESNGQPENNYKTTPPVLDSDGSFFLYSKLTVDKSRWQQGNVFSCSVMHEALHYHYTQKSLSLSP
light: not shown
notes: M252Y/V308P/N434Y; copies: 2 + 2
Kd [1]: 30 nM | BINDING AMOUNT (RU) [2]: 371 RU | BINDING AMOUNT (RU) [3]: 315 RU | BINDING AMOUNT (RU) [4]: 242 RU | BINDING AMOUNT (RU) [5]: 112 RU | BINDING AMOUNT (RU) [6]: 403 RU | BINDING AMOUNT (RU) [7]: 63.4 RU | BINDING AMOUNT (RU) [8]: 154 RU | BINDING AMOUNT (RU) [9]: 145 RU | Kd [10]: 30 nM

B4: VH3-IgG1-F652/L(WT)-CK (antibody)
heavy: B1 heavy with P240D, P310V
light: not shown
notes: P238D in VH3-IgG1-F11; copies: 2 + 2
binding amount [22]: 9.1 RU | binding amount [23]: 64 RU

Further lines, results first:

Kd [11]: 11 nM
B2: antibody with heavy chain VH3-IgG1-FA6a (Heavy Chain A) (antibody)
heavy: B1 heavy with T252V, T309Q, Q313A, D358K, E359K, Y438V
light: not shown
notes: T250V/M252Y/T307Q/V308P/Q311A/D356K/E357K/N434Y/Y436V

BINDING AMOUNT (RU) [12]: 392 RU | BINDING AMOUNT (RU) [13]: 42.1 RU | BINDING AMOUNT (RU) [14]: 116 RU | BINDING AMOUNT (RU) [15]: 117 RU | Kd [16]: 22 nM | BINDING AMOUNT (RU) [17]: 392 RU | BINDING AMOUNT (RU) [18]: 42.1 RU | BINDING AMOUNT (RU) [19]: 116 RU | BINDING AMOUNT (RU) [20]: 117 RU | Kd [21]: 22 nM
B3: VH3/L(WT)-IgG1-F698 (antibody, name in EU numbering)
heavy: B1 heavy with N288E, T309Q, P310V, Q313A
light: not shown
notes: copies: 2 + 2

Kd [24]: 1.6 nM
B5: antibody with mPM1H-mIgG1-mF3 heavy chain and L(WT)-CK light chain (antibody)
heavy: DVQLQESGPVLVKPSQSLSLTCTVTGYSITSDHAWSWIRQFPGNKLEWMGYISYSGITTYNPSLKSRISITRDTSKNQFFLQLNSVTTGDTSTYYCARSLARTTAMDYWGQGTSVTVSSAKTTPPSVYPLAPGSAAQTNSMVTLGCLVKGYFPEPVTVTWNSGSLSSGVHTFPAVLQSDLYTLSSSVTVPSSTWPSETVTCNVAHPASSTKVDKKIVPRDCGCKPCICTVPEVSSVFIFPPKPKDVLYITLEPKVTCVVVDISKDDPEVQFSWFVDDVEVHTAQTQPREEQFNSTFRSVSELPIMHQDWLNGKEFKCRVNSAAFPAPIEKTISKTKGRPKAPQVYTIPPPKEQMAKDKVSLTCMITDFFPEDITVEWQWNGQPAENYKNTQPIMDTDGSYFVYSKLNVQKSNWEAGNTFTCSVLHEGLKFHHTEKSLSHSPGK
light: not shown
notes: T252Y/T256E/H433K/N434F; copies: 2 + 2
